From the supplement of paper PMC7125110
± gives the standard error. For part of these data: This sample holds only a part of the variants without activity.

B1: glmS ribozyme (parent)
chain: AUAAAAGCGCCAGAACUACAGAAAUGUAGUUGACGAGGAGGAGGUUUAUCGAAUUUUCGGCGGAUGCCUCCAAA

Experiments:
Conditions in all cases: with glucosamine-6-phosphate
glucosamine-6-phosphate [1] = variants of: B1; experiment: self-cleavage kobs at 40 uM GlcN6P; higher = faster cleavage; RNA array
Method in brief: (§1)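 Glucosamine-6-phosphate, from 40 μM to 10 mM in HEPES/KCl/Mg(OAc)2 buffer, was flowed over sequenced MiSeq chips carrying barcoded ribozyme variants transcribed in situ by E. coli RNA polymerase. A hybridised Cy3 probe tracked the variants at 37 °C as tiles were imaged over ~14 h. kobs, kcat and KM were obtained by fitting normalised per-tile medians to exponential decays and then applying weighted Michaelis–Menten fits across concentrations.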

glucosamine-6-phosphate [2] = variants of: B1; experiment: self-cleavage kobs at 160 uM GlcN6P; higher = faster cleavage; RNA array
Method in brief: as §1

glucosamine-6-phosphate [3] = variants of: B1; experiment: self-cleavage kobs at 640 uM GlcN6P; higher = faster cleavage; RNA array
Method in brief: as §1

glucosamine-6-phosphate [4] = variants of: B1; experiment: self-cleavage kobs at 10000 uM GlcN6P; higher = faster cleavage; RNA array
Method in brief: as §1

glucosamine-6-phosphate [5] = variants of: B1; experiment: self-cleavage kobs at 2500 uM GlcN6P; higher = faster cleavage; RNA array
Method in brief: as §1

glucosamine-6-phosphate [6] = variants of: B1; experiment: kcat; higher = faster cleavage; RNA array
Method in brief: as §1

glucosamine-6-phosphate [7] = variants of: B1; experiment: KM; higher = weaker cofactor use; RNA array
Method in brief: as §1

G7C U31C
self-cleavage kobs at 40 uM GlcN6P (glucosamine-6-phosphate [1]): < 1e-05 s⁻¹
self-cleavage kobs at 160 uM GlcN6P (glucosamine-6-phosphate [2]): < 1e-05 s⁻¹

A6C G29U G32A U57A
self-cleavage kobs at 40 uM GlcN6P (glucosamine-6-phosphate [1]): < 1e-05 s⁻¹
self-cleavage kobs at 640 uM GlcN6P (glucosamine-6-phosphate [3]): < 1e-05 s⁻¹
self-cleavage kobs at 10000 uM GlcN6P (glucosamine-6-phosphate [4]): < 1e-05 s⁻¹

A6G G35U U56A
self-cleavage kobs at 40 uM GlcN6P (glucosamine-6-phosphate [1]): < 1e-05 s⁻¹

G7C C10A G29U A64C
self-cleavage kobs at 40 uM GlcN6P (glucosamine-6-phosphate [1]): < 1e-05 s⁻¹
self-cleavage kobs at 2500 uM GlcN6P (glucosamine-6-phosphate [5]): < 1e-05 s⁻¹
self-cleavage kobs at 10000 uM GlcN6P (glucosamine-6-phosphate [4]): < 1e-05 s⁻¹

A6U A15U G63A C70U
self-cleavage kobs at 40 uM GlcN6P (glucosamine-6-phosphate [1]): < 1e-05 s⁻¹

C67G C71G
kcat (glucosamine-6-phosphate [6]): 1.33e-05 ± 4.1e-06 s⁻¹

A6G C8U U54G C68G
self-cleavage kobs at 40 uM GlcN6P (glucosamine-6-phosphate [1]): 0.000149 ± 5.2e-05 s⁻¹
self-cleavage kobs at 640 uM GlcN6P (glucosamine-6-phosphate [3]): 0.000705 ± 0.00028 s⁻¹
self-cleavage kobs at 10000 uM GlcN6P (glucosamine-6-phosphate [4]): 7.88e-05 ± 2.2e-05 s⁻¹

G7C A33U A48U
self-cleavage kobs at 40 uM GlcN6P (glucosamine-6-phosphate [1]): < 1e-05 s⁻¹

A6C G43U C67A
self-cleavage kobs at 40 uM GlcN6P (glucosamine-6-phosphate [1]): < 1e-05 s⁻¹

A15C G38U
KM (glucosamine-6-phosphate [7]): 67.7 ± 27 µM

A6C A36C
self-cleavage kobs at 40 uM GlcN6P (glucosamine-6-phosphate [1]): < 1e-05 s⁻¹
self-cleavage kobs at 160 uM GlcN6P (glucosamine-6-phosphate [2]): < 1e-05 s⁻¹
self-cleavage kobs at 10000 uM GlcN6P (glucosamine-6-phosphate [4]): < 1e-05 s⁻¹

A1C U56G
self-cleavage kobs at 40 uM GlcN6P (glucosamine-6-phosphate [1]): 0.000433 ± 9.4e-05 s⁻¹
self-cleavage kobs at 10000 uM GlcN6P (glucosamine-6-phosphate [4]): 0.0185 ± 0.0058 s⁻¹

C68A C71A
kcat (glucosamine-6-phosphate [6]): < 1e-05 s⁻¹
self-cleavage kobs at 160 uM GlcN6P (glucosamine-6-phosphate [2]): < 1e-05 s⁻¹
self-cleavage kobs at 10000 uM GlcN6P (glucosamine-6-phosphate [4]): < 1e-05 s⁻¹

A6G A14U U31A U57G
self-cleavage kobs at 40 uM GlcN6P (glucosamine-6-phosphate [1]): < 1e-05 s⁻¹
self-cleavage kobs at 160 uM GlcN6P (glucosamine-6-phosphate [2]): < 1e-05 s⁻¹
self-cleavage kobs at 640 uM GlcN6P (glucosamine-6-phosphate [3]): < 1e-05 s⁻¹
self-cleavage kobs at 10000 uM GlcN6P (glucosamine-6-phosphate [4]): < 1e-05 s⁻¹

A6G A14U U31C C50G
self-cleavage kobs at 40 uM GlcN6P (glucosamine-6-phosphate [1]): 4.57e-05 ± 2.1e-05 s⁻¹
self-cleavage kobs at 10000 uM GlcN6P (glucosamine-6-phosphate [4]): 0.000265 ± 9.7e-05 s⁻¹

C8G A39G G59C
self-cleavage kobs at 40 uM GlcN6P (glucosamine-6-phosphate [1]): < 1e-05 s⁻¹
self-cleavage kobs at 10000 uM GlcN6P (glucosamine-6-phosphate [4]): < 1e-05 s⁻¹

A6G A48U G66U U69C
self-cleavage kobs at 40 uM GlcN6P (glucosamine-6-phosphate [1]): < 1e-05 s⁻¹
self-cleavage kobs at 10000 uM GlcN6P (glucosamine-6-phosphate [4]): < 1e-05 s⁻¹

C8A A48C G59U
self-cleavage kobs at 40 uM GlcN6P (glucosamine-6-phosphate [1]): < 1e-05 s⁻¹
self-cleavage kobs at 10000 uM GlcN6P (glucosamine-6-phosphate [4]): < 1e-05 s⁻¹

C8G G29C A64G
self-cleavage kobs at 40 uM GlcN6P (glucosamine-6-phosphate [1]): < 1e-05 s⁻¹

C8G A33U
self-cleavage kobs at 40 uM GlcN6P (glucosamine-6-phosphate [1]): < 1e-05 s⁻¹
self-cleavage kobs at 160 uM GlcN6P (glucosamine-6-phosphate [2]): < 1e-05 s⁻¹
self-cleavage kobs at 640 uM GlcN6P (glucosamine-6-phosphate [3]): < 1e-05 s⁻¹
self-cleavage kobs at 2500 uM GlcN6P (glucosamine-6-phosphate [5]): < 1e-05 s⁻¹
self-cleavage kobs at 10000 uM GlcN6P (glucosamine-6-phosphate [4]): < 1e-05 s⁻¹

C70G C71G
kcat (glucosamine-6-phosphate [6]): 3.62e-05 ± 7e-06 s⁻¹
self-cleavage kobs at 160 uM GlcN6P (glucosamine-6-phosphate [2]): 3.85e-05 ± 1.4e-05 s⁻¹
self-cleavage kobs at 640 uM GlcN6P (glucosamine-6-phosphate [3]): 5.98e-05 ± 1.4e-05 s⁻¹
self-cleavage kobs at 2500 uM GlcN6P (glucosamine-6-phosphate [5]): 3.62e-05 ± 9.7e-06 s⁻¹
self-cleavage kobs at 10000 uM GlcN6P (glucosamine-6-phosphate [4]): 2.86e-05 ± 7.6e-06 s⁻¹

C8G A36U G60C
self-cleavage kobs at 40 uM GlcN6P (glucosamine-6-phosphate [1]): < 1e-05 s⁻¹
self-cleavage kobs at 10000 uM GlcN6P (glucosamine-6-phosphate [4]): < 1e-05 s⁻¹

G66A C67G
kcat (glucosamine-6-phosphate [6]): 0.00418 ± 0.0021 s⁻¹
self-cleavage kobs at 40 uM GlcN6P (glucosamine-6-phosphate [1]): 0.000102 ± 1.4e-05 s⁻¹
self-cleavage kobs at 160 uM GlcN6P (glucosamine-6-phosphate [2]): 0.000414 ± 5.4e-05 s⁻¹
self-cleavage kobs at 640 uM GlcN6P (glucosamine-6-phosphate [3]): 0.000703 ± 0.0001 s⁻¹
self-cleavage kobs at 2500 uM GlcN6P (glucosamine-6-phosphate [5]): 0.00281 ± 0.00066 s⁻¹
self-cleavage kobs at 10000 uM GlcN6P (glucosamine-6-phosphate [4]): 0.00412 ± 0.00067 s⁻¹

G66A C67U
kcat (glucosamine-6-phosphate [6]): 0.00255 ± 0.00091 s⁻¹
self-cleavage kobs at 40 uM GlcN6P (glucosamine-6-phosphate [1]): 0.000173 ± 2.6e-05 s⁻¹
self-cleavage kobs at 160 uM GlcN6P (glucosamine-6-phosphate [2]): 0.000398 ± 6.5e-05 s⁻¹
self-cleavage kobs at 640 uM GlcN6P (glucosamine-6-phosphate [3]): 0.00134 ± 0.0002 s⁻¹
self-cleavage kobs at 2500 uM GlcN6P (glucosamine-6-phosphate [5]): 0.0016 ± 0.0003 s⁻¹
self-cleavage kobs at 10000 uM GlcN6P (glucosamine-6-phosphate [4]): 0.00498 ± 0.00098 s⁻¹

G7A G60A
self-cleavage kobs at 40 uM GlcN6P (glucosamine-6-phosphate [1]): < 1e-05 s⁻¹
self-cleavage kobs at 160 uM GlcN6P (glucosamine-6-phosphate [2]): < 1e-05 s⁻¹
self-cleavage kobs at 640 uM GlcN6P (glucosamine-6-phosphate [3]): < 1e-05 s⁻¹
self-cleavage kobs at 10000 uM GlcN6P (glucosamine-6-phosphate [4]): < 1e-05 s⁻¹
